Here are results for 2 proteins from US20110301093.

Data set [1] concerns the target T1, peptide corresponding to Beclin's BH3 domain (aa 108-127).
T1 chain: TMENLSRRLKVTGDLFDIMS

Data set [2] has as its target T2, mutant BH3 peptide in which Thr119 was substituted to alanine (T119A).
T2 chain: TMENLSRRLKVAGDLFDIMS

Data set [3] addresses Flag-tagged Beclin-1.
In data set [4] the target is GST-Beclin-1.
Chain of GST-Beclin-1 (chain, as listed by the source): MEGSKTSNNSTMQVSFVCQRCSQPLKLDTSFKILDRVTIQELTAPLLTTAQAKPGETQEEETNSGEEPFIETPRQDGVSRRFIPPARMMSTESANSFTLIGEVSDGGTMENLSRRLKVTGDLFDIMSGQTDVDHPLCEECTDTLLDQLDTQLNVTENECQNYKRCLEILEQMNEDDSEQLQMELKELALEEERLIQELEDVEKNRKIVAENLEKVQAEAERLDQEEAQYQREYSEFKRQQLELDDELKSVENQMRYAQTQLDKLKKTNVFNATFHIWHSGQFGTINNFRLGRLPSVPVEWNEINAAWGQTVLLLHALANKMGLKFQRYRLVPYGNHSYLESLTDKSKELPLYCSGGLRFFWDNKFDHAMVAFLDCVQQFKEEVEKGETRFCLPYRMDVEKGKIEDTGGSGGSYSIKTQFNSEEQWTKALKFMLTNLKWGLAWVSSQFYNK

Chain of Flag-tagged Beclin-1 (chain, as listed by the source): as above

B1: DAPk's catalytic domain (DK1) (protein)
chain: MTVFRQENVDDYYDTGEELGSGQFAVVKKCREKSTGLQYAAKFIKKRRTKSSRRGVSREDIEREVSILKEIQHPNVITLHEVYENKTDVILILELVAGGELFDFLAEKESLTEEEATEFLKQILNGVYYLHSLQIAHFDLKPENIMLLDRNVPKPRIKIIDFGLAHKIDFGNEFKNIFGTPEFVAPEIVNYEPLGLEADMWSIGVITYILLSGASPFLGDTKQETLANVSAVNYEFEDEYFSNTSALAKDFIRRLLVKDPKKRMTIQDSLQHPWIKPKDTQQALS
Take B1: the “peptide phosphorylation, filter assay (total counts against substrate concentration)” value in data set [1] is given as “DAPk phosphorylates Beclin's BH3 peptide in a dose-dependent manner”. The “peptide phosphorylation, filter assay” value in data set [2] is listed as “Changing Thr119 to alanine strongly inhibited the extent of peptide phosphorylation”.

B2: Flag-tagged DAPk (protein)
chain: MTVFRQENVDDYYDTGEELGSGQFAVVKKCREKSTGLQYAAKFIKKRRTKSSRRGVSREDIEREVSILKEIQHPNVITLHEVYENKTDVILILELVAGGELFDFLAEKESLTEEEATEFLKQILNGVYYLHSLQIAHFDLKPENIMLLDRNVPKPRIKIIDFGLAHKIDFGNEFKNIFGTPEFVAPEIVNYEPLGLEADMWSIGVITYILLSGASPFLGDTKQETLANVSAVNYEFEDEYFSNTSALAKDFIRRLLVKDPKKRMTIQDSLQHPWIKPKDTQQALSRKASAVNMEKFKKFAARKKWKQSVRLISLCQRLSRSFLSRSNMSVARSDDTLDEEDSFVMKAIIHAINDDNVPGLQHLLGSLSNYDVNQPNKHGTPPLLIAAGCGNIQILQLLIKRGSRIDVQDKGGSNAVYWAARHGHVDTLKFLSENKCPLDVKDKSGEMALHVAARYGHADVAQLLCSFGSNPNIQDKEEETPLHCAAWHGYYSVAKALCEAGCNVNIKNREGETPLLTASARGYHDIVECLAEHGADLNACDKDGHIALHLAVRRCQMEVIKTLLSQGCFVDYQDRHGNTPLHVACKDGNMPIVVALCEANCNLDISNKYGRTPLHLAANNGILDVVRYLCLMGASVEALTTDGKTAEDLARSEQHEHVAGLLARLRKDTHRGLFIQQLRPTQNLQPRIKLKLFGHSGSGKTTLVESLKCGLLRSFFRRRRPRLSSTNSSRFPPSPLASKPTVSVSINNLYPGCENVSVRSRSMMFEPGLTKGMLEVFVAPTHHPHCSADDQSTKAIDIQNAYLNGVGDFSVWEFSGNPVYFCCYDYFAANDPTSIHVVVFSLEEPYEIQLNQVIFWLSFLKSLVPVEEPIAFGGKLKNPLQVVLVATHADIMNVPRPAGGEFGYDKDTSLLKEIRNRFGNDLHISNKLFVLDAGASGSKDMKVLRNHLQEIRSQIVSVCPPMTHLCEKIISTLPSWRKLNGPNQLMSLQQFVYDVQDQLNPLASEEDLRRIAQQLHSTGEINIMQSETVQDVLLLDPRWLCTNVLGKLLSVETPRALHHYRGRYTVEDIQRLVPDSDVEELLQILDAMDICARDLSSGTMVDVPALIKTDNLHRSWADEEDEVMVYGGVRIVPVEHLTPFPCGIFHKVQVNLCRWIHQQSTEGDADIRLWVNGCKLANRGAELLVLLVNHGQGIEVQVRGLETEKIKCCLLLDSVCSTIENVMATTLPGLLTVKHYLSPQQLREHHEPVMIYQPRDFFRAQTLKETSLTNTMGGYKESFSSIMCFGCHDVYSQASLGMDIHASDLNLLTRRKLSRLLDPPDPLGKDWCLLAMNLGLPDLVAKYNTSNGAPKDFLPSPLHALLREWTTYPESTVGTLMSKLRELGRRDAADFLLKASSVFKINLDGNGQEAYASSCNSGTSYNSISSVVSR
With B2, the “in vitro kinase assay, phosphorylation ([γ-33P]ATP, autoradiogram)” value in data set [3] is “The phosphorylation by Flag-tagged (60 ng) DAPk was also observed when Flag-tagged Beclin-1 (250 ng), immunoprecipitated from HEK293T cells, was used as a substrate”; in data set [4], “GST-Beclin-1, but not GST alone, was phosphorylated by DAPk”.
